Here are results for 19 molecules from patent US20240327535A1 (EISAI R AND D MANAGEMENT, published 2024).

Where two headings read alike, the source gives them in different places.

For orientation: Kd means the constant that tells how readily two partners part at equilibrium.

Common to all, as to assay: Octet BLI; Fab 200 nM
On the technique in general: In BLI a coated tip is dipped into the sample, and binding shifts an interference pattern.

Assay [1] concerns the target T1, extracellular domain of human BCMA (human, UniProt Q02223 1-54).
T1 construct: amine-linked to Octet AR2G tips; also called hsBCMA; BCMA (human)
T1 sequence: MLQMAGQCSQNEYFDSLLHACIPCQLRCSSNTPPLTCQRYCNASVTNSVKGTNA

The target in assay [2] is T2, extracellular domain of rhesus monkey BCMA (rhesus monkey, UniProt F7FFA0 1-53).
T2 construct: extracellular domain; also called RhBCMA
T2 sequence (F7FFA0 entry or part of it): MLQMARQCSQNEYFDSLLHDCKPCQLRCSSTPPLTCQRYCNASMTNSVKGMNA

The target in assay [3] is T1, extracellular domain of human BCMA. This is another data set of the same source.
Assay [4] deals with T2, extracellular domain of rhesus monkey …. The source holds these as a separate data set.

B1: AB200-R1a-Fab(hCDR2) (Fab, V domains shown)
VH: QVQLVQSGAEVKKPGSSVKVSCKASGGTFSNYWMHWVRQAPGQGLEWMGATYRGHSDTYYNQKFKGRVTITADKSTSTAYMELSSLRSEDTAVYYCARGAIYHGYDVLDNWGQGTLVTVSS
VL: DIQMTQSPSSLSASVGDRVTITCSASQDISNYLNWYQQKPGKAPKLLIYAASSLQSGVPSRFSGSGSGTDFTLTISSLQPEDFATYYCQQYRKLPWTFGQGTKLEIKR
B1: the Kd in assay [1] turned out to be 2.14 nM; in assay [2], 7.14 nM.

B2: AB200-R1a-Fab_VH56 (Fab, V domains shown)
VH: QVQLVQSGAEVKKPGSSVKVSCKASGGTFSNYWIHWVRQAPGQGLEWMGATYRGHSDTYYNQKFRGRVTITADKSTSTAYMELSSLRSEDTAVYYCARGTIYHGYDVLDNWGQGTLVTVSS
VL: DIQMTQSPSSLSASVGDRVTITCSATQDISNYLNWYQQKPGKAPKLLIYFTSNLQSGVPSRFSGSGSGTDFTLTISSLQPEDFATYYCQQYRKLPWTFGQGTKLEIKR
For the molecule B2, the Kd in assay [3] is 20.7 nM; in assay [4], 18 nM.

B3: AB200-R1a-Fab_VH42 (Fab, V domains shown)
VH: QVQLVQSGAEVKKPGSSVKVSCKASGGTFSNYWMHWVRQAPGQGLEWMGATYRGHSTTYYNQKFKGRVTITADKSTSTAYMELSSLRSEDTAVYYCARGSIYHGYDVMDNWGQGTLVTVSS
VL: DIQMTQSPSSLSASVGDRVTITCSATQDISNYLNWYQQKPGKAPKLLIYFTSNLQSGVPSRFSGSGSGTDFTLTISSLQPEDFATYYCQQYRKLPWTFGQGTKLEIKR
For the molecule B3, the values for the Kd in assay [3] and in assay [4] were 28.4 nM and 15.5 nM, respectively.

B4: AB200-R1a-Fab_VH59 (Fab, V domains shown)
VH: QVQLVQSGAEVKKPGSSVKVSCKATGGTFSNYAMHWVRQAPGQGLEWMGASYRGHSDTYYNQKFKGRVTITADKSTSTAYMELSSLRSEDTAVYYCARGAIYHGYDVLDNWGQGTLVTVSS
VL: DIQMTQSPSSLSASVGDRVTITCSATQDISNYLNWYQQKPGKAPKLLIYFTSNLQSGVPSRFSGSGSGTDFTLTISSLQPEDFATYYCQQYRKLPWTFGQGTKLEIKR
As to B4, the Kd came to 26.2 nM in assay [3] and 28.3 nM in assay [4].

B5: AB200-R1a-Fab_VH60 (Fab, V domains shown)
VH: QVQLVQSGAEVKKPGSSVKVSCKASGGTFSSYWMHWVRQAPGQGLEWMGATYRIHSDSYYNQKFKGRVTITADKSTSTAYMELSSLRSEDTAVYYCARGAIYHGYDVLDNWGQGTLVTVSS
VL: DIQMTQSPSSLSASVGDRVTITCSATQDISNYLNWYQQKPGKAPKLLIYFTSNLQSGVPSRFSGSGSGTDFTLTISSLQPEDFATYYCQQYRKLPWTFGQGTKLEIKR
For the molecule B5, the Kd in assay [3] worked out at 13.6 nM; in assay [4], 17.8 nM.

B6: AB200-R1a-Fab_VH8 (Fab, V domains shown)
VH: QVQLVQSGAEVKKPGSSVKVSCKASGGTFSNYWMHWVRQAPGQGLEWMGATYRSHSDTYYNQKFKGRVTITADESTSTAYMELSSLRSEDTAVYYCARGAIFHGYDVLDNWGQGTLVTVSS
VL: DIQMTQSPSSLSASVGDRVTITCSATQDISNYLNWYQQKPGKAPKLLIYFTSNLQSGVPSRFSGSGSGTDFTLTISSLQPEDFATYYCQQYRKLPWTFGQGTKLEIKR
Turning to B6, the Kd was 0.948 nM in assay [3] and 3.14 nM in assay [4].

B7: AB200-R1a-Fab_VH50 (Fab, V domains shown)
VH: QVQLVQSGAEVKKPGSSVKVSCKASGGTFSNYWMHWVRQAPGQGLEWMGATFRGHSDTYYNQKFKSRVTITADKSTSTAYMELSSLRSEDTAVYYCARGAVYHGYDVLDNWGQGTLVTVSS
VL: DIQMTQSPSSLSASVGDRVTITCSATQDISNYLNWYQQKPGKAPKLLIYFTSNLQSGVPSRFSGSGSGTDFTLTISSLQPEDFATYYCQQYRKLPWTFGQGTKLEIKR
For B7, the Kd in assay [3] turned out to be 4.67 nM; in assay [4], 9.65 nM.

B8: AB200-R1a-Fab_VH40 (Fab, V domains shown)
VH: QVQLVQSGAEVKKPGSSVKVSCKASGGTFSNFWMHWVRQAPGQGLEWMGATYRGHSDTYYNHKFKGRVTITADKSTSTAYMELSSLRSEDTAVYYCARGAIYHGYDVLENWGQGTLVTVSS
VL: DIQMTQSPSSLSASVGDRVTITCSATQDISNYLNWYQQKPGKAPKLLIYFTSNLQSGVPSRFSGSGSGTDFTLTISSLQPEDFATYYCQQYRKLPWTFGQGTKLEIKR
B8: the Kd in assay [3] came out at 17.2 nM; in assay [4], 45.3 nM.

B9: AB200-R1a-Fab_VH52 (Fab, V domains shown)
VH: QVQLVQSGAEVKKPGSSVKVSCKASGGSFSDYWMHWVRQAPGQGLEWMGATYRGHSTTYYNQKFKGRVTITADKSTSTAYMELSSLRSEDTAVYYCARGAIYHGYDVLDNWGQGTLVTVSS
VL: DIQMTQSPSSLSASVGDRVTITCSATQDISNYLNWYQQKPGKAPKLLIYFTSNLQSGVPSRFSGSGSGTDFTLTISSLQPEDFATYYCQQYRKLPWTFGQGTKLEIKR
As to B9, the Kd in assay [3] came to 18 nM; in assay [4], 24.6 nM.

B10: AB200-R1a-Fab_VH46 (Fab, V domains shown)
VH: QVQLVQSGAEVKKPGSSVKVSCKASGGTFSNYWMHWVRQAPGQGLEWMGATYRGHSDTNYNQKYKGRVTITADKSTSTAYMELSSLRSEDTAVYYCARGAIYNGYDVLDNWGQGTLVTVSS
VL: DIQMTQSPSSLSASVGDRVTITCSATQDISNYLNWYQQKPGKAPKLLIYFTSNLQSGVPSRFSGSGSGTDFTLTISSLQPEDFATYYCQQYRKLPWTFGQGTKLEIKR
In the case of B10, the Kd in assay [3] was found to be 11.6 nM; in assay [4], 20 nM.

B11: AB200-R1a-Fab_VH54 (Fab, V domains shown)
VH: QVQLVQSGAEVKKPGSSVKVSCKASGGTFSNYWMHWVRQAPGQGLEWMGATYRGHGDTFYNQKFKGRVTITADKSTSTAYMELSSLRSEDTAVYYCARGAIYHGYDVLNNWGQGTLVTVSS
VL: DIQMTQSPSSLSASVGDRVTITCSATQDISNYLNWYQQKPGKAPKLLIYFTSNLQSGVPSRFSGSGSGTDFTLTISSLQPEDFATYYCQQYRKLPWTFGQGTKLEIKR
With B11, the Kd in assay [3] worked out at 12 nM; in assay [4], 20.8 nM.

B12: AB200-R1a-Fab_VH49 (Fab, V domains shown)
VH: QVQLVQSGAEVKKPGSSVKVSCKASGGTFSNYWIHWVRQAPGQGLEWMGASYRGHSDTYYNQKFKGRVTITADKSTSTAYMELSSLRSEDTAVYYCARGAIYHGYDVIDNWGQGTLVTVSS
VL: DIQMTQSPSSLSASVGDRVTITCSATQDISNYLNWYQQKPGKAPKLLIYFTSNLQSGVPSRFSGSGSGTDFTLTISSLQPEDFATYYCQQYRKLPWTFGQGTKLEIKR
Consider B12, for which the Kd in assay [3] came to 6.72 nM; in assay [4], 15.6 nM.

B13: AB200-R1a-Fab_VH44 (Fab, V domains shown)
VH: QVQLVQSGAEVKKPGSSVKVSCKASGGTFSNYWMHWVRQAPGQGLEWMGGTYRGHSDTYYNQRFKGRVTITADKSTSTAYMELSSLRSEDTAVYYCARGAIYHGYDILDNWGQGTLVTVSS
VL: DIQMTQSPSSLSASVGDRVTITCSATQDISNYLNWYQQKPGKAPKLLIYFTSNLQSGVPSRFSGSGSGTDFTLTISSLQPEDFATYYCQQYRKLPWTFGQGTKLEIKR
Consider B13, for which the dissociation constant (Kd) in assay [3] came to 29 nM; in assay [4], 8.61 nM.

B14: AB200-R1a-Fab_VH45 (Fab, V domains shown)
VH: QVQLVQSGAEVKKPGSSVKVSCKASGGTFSNYWMHWVRQAPGQGLEWMGATYRGHSDTYYNNKFKGRVTITADKSTSTAYMELSSLRSEDTAVYYCARGAIYHGYDVLEDWGQGTLVTVSS
VL: DIQMTQSPSSLSASVGDRVTITCSATQDISNYLNWYQQKPGKAPKLLIYFTSNLQSGVPSRFSGSGSGTDFTLTISSLQPEDFATYYCQQYRKLPWTFGQGTKLEIKR
For the molecule B14, the Kd was 21.1 nM in assay [3] and 44.9 nM in assay [4].

B15: AB200-R1a-Fab_VH48 (Fab, V domains shown)
VH: QVQLVQSGAEVKKPGSSVKVSCKASGGTFSDYWMHWVRQAPGQGLEWMGATYRGHSDTYYNQRFKGRVTITADKSTSTAYMELSSLRSEDTAVYYCARGAIYHGYDVMDNWGQGTLVTVSS
VL: DIQMTQSPSSLSASVGDRVTITCSATQDISNYLNWYQQKPGKAPKLLIYFTSNLQSGVPSRFSGSGSGTDFTLTISSLQPEDFATYYCQQYRKLPWTFGQGTKLEIKR
Regarding B15, the Kd in assay [3] is 34.5 nM; in assay [4] it was 25 nM.

B16: AB200-R1a-Fab_VH57 (Fab, V domains shown)
VH: QVQLVQSGAEVKKPGSSVKVSCKASGGTYSNYYMHWVRQAPGQGLEWMGATYRGHSETYYNQKFKGRVTITADKSTSTAYMELSSLRSEDTAVYYCARGAIYHGYDVLDNWGQGTLVTVSS
VL: DIQMTQSPSSLSASVGDRVTITCSATQDISNYLNWYQQKPGKAPKLLIYFTSNLQSGVPSRFSGSGSGTDFTLTISSLQPEDFATYYCQQYRKLPWTFGQGTKLEIKR
As for B16, the values for the Kd in assay [3] and in assay [4] were 11.1 nM and 12 nM, respectively.

B17: AB200-R1a-Fab_VH38 (Fab, V domains shown)
VH: QVQLVQSGAEVKKPGSSVKVSCKASGGTFSNYWMHWVRQAPGQGLEWMGATYRGHSDTYFNQKFKGRVTITADKSTSTAYMELSSLRSEDTAVYYCARGAIFNGYDVLDNWGQGTLVTVSS
VL: DIQMTQSPSSLSASVGDRVTITCSATQDISNYLNWYQQKPGKAPKLLIYFTSNLQSGVPSRFSGSGSGTDFTLTISSLQPEDFATYYCQQYRKLPWTFGQGTKLEIKR
Take B17: the Kd came out at 4.12 nM in assay [3] and 12.1 nM in assay [4].

B18: AB200-R1a-Fab_VH32 (Fab, V domains shown)
VH: QVQLVQSGAEVKKPGSSVKVSCKASGGTFSNYWMHWVRQAPGQGLEWMGATYRSHSDTYYNQKFKSRVTITADKSTSTAYMELSSLRSEDTAVYYCARGAIYHGYDVIDNWGQGTLVTVSS
VL: DIQMTQSPSSLSASVGDRVTITCSATQDISNYLNWYQQKPGKAPKLLIYFTSNLQSGVPSRFSGSGSGTDFTLTISSLQPEDFATYYCQQYRKLPWTFGQGTKLEIKR
Take B18: the results for the Kd in assay [3] and in assay [4] were 1.09 nM and 4.17 nM, respectively.

B19: AB200-R1a-Fab_VH16 (Fab, V domains shown)
VH: QVQLVQSGAEVKKPGSSVKVSCKASGGTFSTYWMHWVRQAPGQGLEWMGATYRIHSDTYYNQKFKGRVTITADESTSTAYMELSSLRSEDTAVYYCARGAIYHGYDVLDNWGQGTLVTVSS
VL: DIQMTQSPSSLSASVGDRVTITCSATQDISNYLNWYQQKPGKAPKLLIYFTSNLQSGVPSRFSGSGSGTDFTLTISSLQPEDFATYYCQQYRKLPWTFGQGTKLEIKR
B19: the Kd worked out at 14.3 nM in assay [3] and 15.2 nM in assay [4].
